# B1: ATP synthase subunit 9, mitochondrial (Neurospora crassa (strain ATCC 24698 / 74-OR23-1A / CBS 708.71 / DSM 1257 / FGSC 987)), P00842 (parent)
# chain: MASTRVLASRLASQMAASAKVARPAVRVAQVSKRTIQTGSPLQTLKRTQMTSIVNATTRQAFQKRAYSSEIAQAMVEVSKNLGMGSAAIGLTGAGIGIGLVFAALLNGVARNPALRGQLFSYAILGFAFVEAIGLFDLMVALMAKFT
# partner: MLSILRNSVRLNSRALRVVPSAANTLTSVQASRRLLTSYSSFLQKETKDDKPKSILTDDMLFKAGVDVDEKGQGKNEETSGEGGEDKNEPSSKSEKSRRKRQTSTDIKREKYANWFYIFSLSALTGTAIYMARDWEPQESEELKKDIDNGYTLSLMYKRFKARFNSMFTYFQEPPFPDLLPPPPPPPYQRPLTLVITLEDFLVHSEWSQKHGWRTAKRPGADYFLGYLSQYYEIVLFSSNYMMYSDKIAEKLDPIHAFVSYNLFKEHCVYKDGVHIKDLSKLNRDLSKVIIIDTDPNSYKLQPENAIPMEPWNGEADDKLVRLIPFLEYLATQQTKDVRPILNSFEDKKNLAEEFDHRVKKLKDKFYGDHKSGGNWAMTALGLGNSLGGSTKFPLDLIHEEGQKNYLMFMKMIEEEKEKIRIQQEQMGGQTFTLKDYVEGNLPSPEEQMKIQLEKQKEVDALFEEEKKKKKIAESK
# B2: Mitochondrial import inner membrane translocase subunit TIM50 (Saccharomyces cerevisiae), Q02776 (parent)
# chain: B1 partner
# Variants of: B1
# Conditions: with tim50_yeast TIM50, Q02776
row,effect of a mutation on the interaction,Variant
1,disrupting interaction,L7Q;A12Q;A16Q;A17Q

# Variants of: B2
# Conditions: with atp9_neucr oli
row,effect of a mutation on the interaction,Variant
1,decreasing interaction,L434N

# Variants of: B2
# Conditions: with atp9_neucr oli
# Remark: another data set of the same source
row,effect of a mutation on the interaction,Variant
1,decreasing interaction,E414A

# Variants of: B2
# Conditions: with atp9_neucr oli
# Remark: another data set of the same source
row,effect of a mutation on the interaction,Variant
1,disrupting interaction,I413A;D436A

# Variants of: B2
# Conditions: with atp9_neucr oli
# Remark: another data set of the same source
row,effect of a mutation on the interaction,Variant
1,decreasing interaction,E415A
